For 16 sequences, binding signal (fraction of canonical control), activity and off-target activity reduction (fold reduction vs L+17) results are on record in patent publication US20150307561.

In data set [1] the test system is TALE tetramer library CTTC (repeats 1-4 varied) (synthetic (Xanthomonas TALE scaffold)). The data set can be described thus: ELISA. Particulars: mean of 132 library clones, SE 0.07.
Data set [2] deals with TALE tetramer library TCAT (repeats 1-4 varied) (synthetic (Xanthomonas TALE scaffold)). The data set can be described thus: ELISA. The settings on record: mean of 44 library clones, SE 0.22.
The subject of data set [3] is TALE tetramer library ATAC (repeats 5-8 varied) (synthetic (Xanthomonas TALE scaffold)). Kind of data set: ELISA. The settings on record: mean of 43 library clones, SE 0.06.
For data set [4], the system named is TALE tetramer library ATTG (repeats 5-8 varied) (synthetic (Xanthomonas TALE scaffold)). The data set can be described thus: ELISA. The settings on record: mean of 131 library clones, SE 0.05.
The test system of data set [5] is TALE tetramer library CAGA (repeats 5-8 varied) (synthetic (Xanthomonas TALE scaffold)). Kind of data set: ELISA. The settings on record: mean of 146 library clones, SE 0.02. A general note: ELISA stands for enzyme-linked immunosorbent assay.
Data set [6] deals with TALE tetramer library CAGC (repeats 5-8 varied) (synthetic (Xanthomonas TALE scaffold)). The data set can be described thus: ELISA. Particulars: mean of 137 library clones, SE 0.02.
Data set [7] has as its system TALE tetramer library TACA (repeats 5-8 varied) (synthetic (Xanthomonas TALE scaffold)). Kind of data set: ELISA. The settings on record: mean of 85 library clones, SE 0.06.
Data set [8] has as its system TALEN R2+17 (synthetic (Xanthomonas TALE scaffold)). The data set can be described thus: cell_activity. Particulars: K562, partner L+17 or L*+17, cold shock.
Data set [9] deals with TALEN L (L538), canonical RVDs (synthetic (Xanthomonas TALE scaffold)). The data set can be described thus: cell_activity. Particulars: cold shock.
In data set [10] the test system is TALEN L*, non-canonical RVDs (synthetic (Xanthomonas TALE scaffold)). Kind of data set: cell_activity.
For data set [11], the system named is TALEN L*+17 (synthetic (Xanthomonas TALE scaffold)). The data set can be described thus: cell_activity. Particulars: for off-target activity reduction (fold reduction vs L+17): L*+17 homodimer at +17_OT1.
Data set [12] deals with TALEN L+17 (synthetic (Xanthomonas TALE scaffold)). The data set can be described thus: cell_activity. The settings on record: K562, partner R2+17, cold shock.
In data set [13] the test system is TALEN R (R557), canonical RVDs (synthetic (Xanthomonas TALE scaffold)). The data set can be described thus: cell_activity. The settings on record: cold shock.
For data set [14], the system named is TALEN R*, non-canonical RVDs (synthetic (Xanthomonas TALE scaffold)). The data set can be described thus: cell_activity. The settings on record: cold shock.
In data set [15] the test system is TALEN R 102102 (synthetic (Xanthomonas TALE scaffold)). Kind of data set: cell_activity. The settings on record: K562, partner TALEN L.
In data set [16] the test system is TALEN R 102105 (synthetic (Xanthomonas TALE scaffold)). Kind of data set: cell_activity. Particulars: K562, partner TALEN L.
For data set [17], the system named is TALEN R 102109 G34R in repeat 8 (synthetic (Xanthomonas TALE scaffold)). Kind of data set: cell_activity. The settings on record: K562, partner TALEN L.
Data set [18] relates to TALEN R 102112 (synthetic (Xanthomonas TALE scaffold)). The data set can be described thus: cell_activity. The settings on record: K562, partner TALEN L.
In data set [19] the test system is TALEN R 102115 (synthetic (Xanthomonas TALE scaffold)). Kind of data set: cell_activity. Particulars: K562, partner TALEN L.
The subject of data set [20] is TALEN R 102123 (synthetic (Xanthomonas TALE scaffold)). Kind of data set: cell_activity. Particulars: K562, partner TALEN L.
For data set [21], the system named is TALEN R 102124 (synthetic (Xanthomonas TALE scaffold)). Kind of data set: cell_activity. Particulars: K562, partner TALEN L.
Data set [22] deals with TALEN R 102128 (synthetic (Xanthomonas TALE scaffold)). The data set can be described thus: cell_activity. The settings on record: K562, partner TALEN L.
Data set [23] concerns TALEN R 102129 (synthetic (Xanthomonas TALE scaffold)). The data set can be described thus: cell_activity. The settings on record: K562, partner TALEN L.
The subject of data set [24] is TALEN R 102146 (synthetic (Xanthomonas TALE scaffold)). Kind of data set: cell_activity. Particulars: K562, partner TALEN L.
In data set [25] the test system is TALEN R 102148 (synthetic (Xanthomonas TALE scaffold)). The data set can be described thus: cell_activity. Particulars: K562, partner TALEN L.
For data set [26], the system named is TALEN R 102150 (synthetic (Xanthomonas TALE scaffold)). Kind of data set: cell_activity. Particulars: K562, partner TALEN L.
The test system of data set [27] is TALEN R 102151 (synthetic (Xanthomonas TALE scaffold)). The data set can be described thus: cell_activity. Particulars: K562, partner TALEN L.
Data set [28] deals with TALEN R 102156 (synthetic (Xanthomonas TALE scaffold)). Kind of data set: cell_activity. Particulars: K562, partner TALEN L.
For data set [29], the system named is TALEN R 102158 (synthetic (Xanthomonas TALE scaffold)). Kind of data set: cell_activity. Particulars: K562, partner TALEN L.
For data set [30], the system named is TALEN R 102159 (synthetic (Xanthomonas TALE scaffold)). Kind of data set: cell_activity. The settings on record: K562, partner TALEN L.
The subject of data set [31] is TALEN R 102161 (synthetic (Xanthomonas TALE scaffold)). Kind of data set: cell_activity. The settings on record: K562, partner TALEN L.
The subject of data set [32] is TALEN R 102162 (synthetic (Xanthomonas TALE scaffold)). The data set can be described thus: cell_activity. Particulars: K562, partner TALEN L.
In data set [33] the test system is TALEN R 102177 (synthetic (Xanthomonas TALE scaffold)). The data set can be described thus: cell_activity. The settings on record: K562, partner TALEN L.
The mark [34] stands for this setting: OT2, L*/L* homodimer, about 180-fold below L.

A value given as a limit tells only on which side of the number the result lay.

“CATAGTCCCCTCTTCATCCTCCTCGGTGTAGTTTTCACAGTCAGTCCACACGTC (double strand) [CTTC target]” yielded a binding signal (fraction of canonical control) in [1] of 0.55.

For “CATAGTCCCCTTCATATCCTCCTCGGTGTAGTTTTCACAGTCAGTCCACACGTC (double strand) [TCAT target]”, the binding signal (fraction of canonical control) in data set [2] was 1.03.

Turning to “CATAGTCCCCTTGACATACTCCTCGGTGTAGTTTTCACAGTCAGTCCACACGTC (double strand) [ATAC target]”, the binding signal (fraction of canonical control) in data set [3] is 0.56.

Regarding “CATAGTCCCCTTGACATTGTCCTCGGTGTAGTTTTCACAGTCAGTCCACACGTC (double strand) [ATTG target]”, the binding signal (fraction of canonical control) in data set [4] is 0.37.

Regarding “CATAGTCCCCTTGACCAGATCCTCGGTGTAGTTTTCACAGTCAGTCCACACGTC (double strand) [CAGA target]”, the binding signal (fraction of canonical control) in data set [5] turned out to be 0.18.

Turning to “CATAGTCCCCTTGACCAGCTCCTCGGTGTAGTTTTCACAGTCAGTCCACACGTC (double strand) [CAGC target]”, the binding signal (fraction of canonical control) in data set [6] was 0.03.

Sequence “CATAGTCCCCTTGACTACATCCTCGGTGTAGTTTTCACAGTCAGTCCACACGTC (double strand) [TACA target]” registered a binding signal (fraction of canonical control) in data set [7] of 0.5.

Sequence “CCATACAGTCAGTATCAAT (double strand) [CCR5 +17 target, right half]” showed an activity in [8] of over 85 % indels.

“CCCGATGAAGCCCCAGGTGTTTTAAAT (double strand) [OT2 right half]”: the activity in data set [9] (OT2, L/L homodimer) was determined as 3.18 % indels; in data set [10] (setting [34]), 0.017 % indels.

For “CTTCATTACACCTGCAGCTCTCA (double strand) [CCR5 +17 target, left half]”, the activity in data set [11] (K562, partner R2+17, cold shock) is over 85 % indels; in data set [12], over 85 % indels.

On to “CTTGATTCCACCTGTAGCTCCGAGCAAA (double strand) [OT2 left half]”, for which the activity in [9] (OT2, L/L homodimer) stood at 3.18 % indels; in data set [10] (setting [34]) it was 0.017 % indels.

As for “GTTACCAGATATCCTTTCTGGAAGAAA (double strand) [OT1 right half]”, the activity in data set [13] (OT1, L/R) came to 3.17 % indels; in data set [14] (OT1, L*/R*, 0.663 for L/R*) it was 0.32 % indels.

As for “TCTTCCAGAATTGATACT (double strand) [TALEN R binding site (CCR5)]”, the activity in [13] (K562, L/R) came to 50.6 % indels; in data set [15], 27.8 % indels; in data set [16], 24.9 % indels; in data set [17], 29.7 % indels; in [18], 6.1 % indels; in [19], 27.7 % indels. Further, the activity stood at 32.8 % indels in data set [20]; 29.1 % indels in data set [21]; 7.6 % indels in [22]; 4.7 % indels in [23]; 31.4 % indels in [24]; 33.7 % indels in data set [25]. In addition, the activity worked out at 31.2 % indels in [26]; 23.6 % indels in data set [27]; 25.4 % indels in [28]; 23.4 % indels in [29]; 24.9 % indels in data set [30]; 9.3 % indels in data set [31]. For the same sequence, the activity in data set [32] came to 23.1 % indels; in data set [33], 22.9 % indels; in data set [14] (K562, L*/R*, 55.53 with L), 65.2 % indels.

The sequence “TTTACCCTGCAGGTGTGATGAAT (double strand) [+17_OT1 right half]” registered an off-target activity reduction (fold reduction vs L+17) in data set [11] of over 100.

“TTTAGATACACCTACCTATAAAT (double strand) [+17_OT1 left half]” came in with an off-target activity reduction (fold reduction vs L+17) in data set [11] of over 100.

For the sequence “TTTTATTACACTTCCAGATCTTTTATT (double strand) [OT1 left half]”, the activity came out at 3.17 % indels in data set [9] (OT1, L/R) and 0.32 % indels in data set [10] (OT1, L*/R*, cold shock, 1.967 for L*/R).
